From PMC8359418, “Genome‐wide analysis of in vivo CcpA binding with and without its key co‐factor HPr in the major human pathogen group A Streptococcus” (Molecular Microbiology, 2020) come the findings set out here.

For assay [1], the target named is recombinant wild type GAS CcpA (catabolite control protein A) (group A Streptococcus (Streptococcus pyogenes)). Kind of assay: SPR; CcpA (3,700 RU) or CcpAV301A (4,200 RU) immobilised on CM5 by amine coupling; HPr or HPrSer46~P injected, 2-fold dilutions 1.25 to 80 uM; PBS pH 7.4, 25°C; steady-state responses fitted to a one-site binding model; BIAcore T200. (In SPR one partner is held on a chip, and binding of the other changes the refractive index at the surface.)

Assay [2] addresses recombinant GAS CcpA with V301A change (group A Streptococcus (Streptococcus pyogenes)). The description is as above.
Assay [3] has as its target T1, CcpA endogenous in GAS strain MGAS2221 (Streptococcus pyogenes (endogenous in …, UniProt Q9A118 1-333)).
T1 construct: Catabolite control protein A (CcpA) of Streptococcus pyogenes serotype emm1 strain MGAS2221 (gene content identical to MGAS5005); also called wild type CcpA; source: endogenous, lysate of cross-linked MGAS2221 cells
Kind of assay: co-IP; GAS strains grown to mid-exponential phase in THY, cross-linked with EGS and formaldehyde, sonicated; precipitated with polyclonal anti-CcpA antibody, Western blot with anti-HPr antibody, quantified (Odyssey). The settings on record: partners not purified. In general terms: In western blotting, separated proteins are transferred to a membrane and probed.

Regarding “recombinant GAS HPr phosphorylated at Ser46 (natural protein)”, the Kd – broadly, the concentration at which binding is half-saturated – was 5.8 µM in assay [1] and 153 µM in assay [2].

Regarding “recombinant GAS HPr (histidine-containing protein), unphosphorylated (natural protein)”, the Kd in assay [1] came to 188 µM.

B1: HPr endogenous in GAS strains MGAS2221 and 2221-CcpA-V301A (natural protein)
chain: MASKDFHIVAETGIHARPATLLVQTASKFASDITLDYKGKAVNLKSIMGVMSLGVGQGADVTISAEGADAEDAIAAIEETMTKEGLA
notes: Phosphocarrier protein HPr (ptsH) of Streptococcus pyogenes serotype emm1 strain MGAS2221 and its isoallelic derivative; Detected with an anti-HPr antibody; the phosphorylation state of the co-precipitated HPr was not determined (by Phos-tag gels most cellular HPr was unphosphorylated); also called HPr~P; source: endogenous, lysates of cross-linked MGAS2221 and 2221-CcpA-V301A cells
Take B1: the “fold more HPr co-immunoprecipitated than from strain 2221-CcpA-V301A” value in assay [3] came out at 10 fold.
